Source: patent US20210244785A1

Experiments:
[1] = tryptophan fluorescence, urea dissociation of multimeric peptide complexes, 25 µM peptide
[2] = tryptophan fluorescence, urea dissociation of multimeric peptide complexes, 5 µM peptide
[3] = molecular target: S. epidermidis delta-haemolysin (Staphylococcus epidermidis); experiment: as above
[4] = molecular target: S. epidermidis delta-haemolysin (Staphylococcus epidermidis); experiment: tryptophan fluorescence, urea dissociation of multimeric peptide complexes, 25 µM peptide

| Substance | midpoint of urea unfolding curve (25 µM peptide) [1] | midpoint of urea unfolding curve (5 µM peptide) [2] | deltaG (H2O) (5 µM peptide) [3] [kcal/mol] | deltaG (H2O) (25 µM peptide) [4] [kcal/mol] |
| --- | --- | --- | --- | --- |
| S. epidermidis delta-haemolysin | The midpoints of the unfolding curves of 5 µM and 25 µM were 2.14 and 3.20M urea | The midpoints of the unfolding curves of 5 µM and 25 µM were 2.14 and 3.20M urea | – | – |
| S. epidermidis delta-haemolysin (peptide) | – | – | 1.43 | 1.57 |
